Target: mouse recombinant His-calmodulin (mouse), P0DP26

Binder: INLKALAALAKKIL (modifications not checked) [Mastoparan, P01514 1-14]
- Kd: 1.2 nM
